{"source": "paper PMC8183521", "about": "(2021)", "biological_target": "SARS-CoV-2 (2019-nCoV) Spike RBD-His Recombinant Protein (SARS-CoV-2, UniProt P0DTC2 319-541)", "experiment": "ELISA"}
{"binder": "B-38 (antibody, V domains shown) VH: EVQLVESGGGLVQPGGSLRLSCAASGFIVSSNYMSWVRQAPGKGLEWVSVIYSGGSTYYADSVKGRFTISRHNSKNTLYLQMNSLRAEDTAVYYCAREAYGMDVWGQGTTVTVSS VL: DIVMTQSPSFLSASVGDRVTITCRASQGISSYLAWYQQKPGKAPKLLIYAASTLQSGVPSRFSGSGSGTEFTLTISSLQPEDFATYYCQQLNSYPPYTFGQGTKLEIK", "values": [{"measurement": "EC50", "value": 1.5, "unit": "µg/mL"}]}
